What was measured:
[1] = molecular target: T1, EGFR (Homo sapiens, UniProt P00533); test: Chimera-induced degradation of EGFR, Western blot; assay type: cell-based; conditions: 48 hours
T1 construct: two EGFR-high-expressing cell lines-A431, and A549-were selected for the experiment; endogenous in cells; host or cells: A431, A549
Procedure: In this Example, two EGFR-high-expressing cell lines-A431, and A549-were selected for the experiment. The cells were plated one day before the administration of chimeras. […] Subsequently, the cells were lysed using a lysis buffer, total proteins were extracted, and protein concentration was quantified using a BCA protein assay kit (Thermo Fisher). Proteins were separated by 10% SDS-PAGE and transferred onto polyvinylidene fluoride (PVDF) membranes via electroblotting. The membranes were blocked with 5% skim milk at room temperature for 1 hour. After removing the milk, the membranes were incubated with a primary antibody overnight at 4° C. on a shaker. The next day, the membranes were quickly immersed in TBST and washed three times, followed by incubation with a secondary antibody at room temperature for 1 hour. Finally, the proteins were detected and recorded using a chemiluminescence reagent and a Tanon chemiluminescence imaging system, and quantitative analysis was performed on the proteins using ImageJ. All primary antibodies used in this Example were an anti-EGFR antibody.

[2] = molecular target: T2, CDK5 (Homo sapiens, UniProt Q00535); test: Chimera-induced degradation of intracellular target CDK5, Western blot; assay type: cell-based; conditions: T24 cells; 48 hours; compared to PEP2 and P1
T2 construct: a CDK5-high-expressing cell line—T24 human bladder cancer cells—was selected for the experiment; endogenous in cells; host or cells: T24
Procedure: In this Example, a CDK5-high-expressing cell line—T24 human bladder cancer cells—was selected for the experiment. The cells were plated one day before the administration of chimeras. Each of PEP2, P1 and PEP-C4-P1 was diluted in complete medium and incubated with the cells for 48 hours. Subsequently, the cells were lysed using a lysis buffer, total proteins were extracted, and protein concentration was quantified using a BCA protein assay kit (Thermo Fisher). Proteins were separated by 10% SDS-PAGE and transferred onto polyvinylidene fluoride (PVDF) membranes via electroblotting. The membranes carrying the proteins were blocked with 5% skim milk at room temperature for 1 hour. After removing the milk, the membranes were incubated with a primary antibody overnight at 4° C. on a shaker. The next day, the membranes were quickly immersed in TBST and washed three times, followed by incubation with a secondary antibody at room temperature for 1 hour. Finally, the proteins were detected and recorded using a chemiluminescence reagent and a Tanon chemiluminescence imaging system, and quantitative analysis was performed on the proteins using ImageJ. All primary antibodies used in this Example were an anti-CDK5 antibody.

T2 sequence (Q00535 whole entry): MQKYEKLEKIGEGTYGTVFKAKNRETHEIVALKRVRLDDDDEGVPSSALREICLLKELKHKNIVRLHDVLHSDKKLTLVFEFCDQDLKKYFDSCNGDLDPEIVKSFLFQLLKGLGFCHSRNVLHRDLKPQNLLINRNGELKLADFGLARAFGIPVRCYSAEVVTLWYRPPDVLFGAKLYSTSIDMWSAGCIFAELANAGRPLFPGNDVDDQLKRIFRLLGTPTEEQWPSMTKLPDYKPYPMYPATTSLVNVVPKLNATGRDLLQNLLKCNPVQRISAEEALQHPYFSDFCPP

degradation of CDK5 (Western blot, FIG. 15) [2]	Substance	degradation of EGFR (Western blot, FIG. 6C) ([1]; A431 cells)	degradation of EGFR (Western blot, FIG. 6C) ([1]; A549 cells)
–	PEP1-P1: EGFR-binding polypeptide PEP1 (LARLLT) fused at C-terminus to P1, SEQ ID NO: 134 (LARLLTSFHDDSDEDLLHI)	obvious degradation effect on the membrane receptor EGFR	obvious degradation effect on the membrane receptor EGFR
obvious degradation effect on CDK5	PEP2-C4-P1: CDK5-binding polypeptide PEP2 (RRPPRSPDHKRYFRDKE) fused at C-terminus to C4-P1, SEQ ID NO: 136 (RRPPRSPDHKRYFRDKEYGRKKRRQRRRSFHDDSDEDLLHI)	–	–
–	PEP1-C3-P1: EGFR-binding polypeptide PEP1 (LARLLT) fused at C-terminus to C3-P1, SEQ ID NO: 135 (LARLLTRRRRKSFHDDSDEDLLHI)	obvious degradation effect on the membrane receptor EGFR	obvious degradation effect on the membrane receptor EGFR

— patent publication US20260274986A1, “USE OF CHIMERA IN TARGETED PROTEIN DEGRADATION TECHNOLOGY” (SUN YAT-SEN UNIVERSITY, priority 2023, published 2026)
